± gives the uncertainty stated by the source.

The values below come from the supplement of paper PMC7877785.

The data set can be described thus: self-splicing fitness, log relative to wild type (ln ratio); higher = more splicing; Tetrahymena group I intron in knt gene, E. coli kanamycin selection, DiMSum; sequences stand for … in CUCUCU…GGAGGGAAAAGUUAUCAGGCAUGCACCUGGUAGCUAGUCUUUAAACCAAUAGAUUGCAUCGGUUUAAAAGGCAAGACCGUCAAAUUGCGGGAAAGGGGUCAACAGCCGUUCAGUACCAAGUCUCAGGGGAAACUUUGAGAUGGCCUUGCAAAGGGUAUGGUAAUAAGCUGACGGACAUGGUCCUAACCACGCAGCCAAGUCCUAAGUCAACAGAUCUUCUGUUGAUAUGGAUGCAGUUCACAGACUAAAUGUCGGUCGGGGAAGAUGUAUUCUUCUCAUAAGAUAUAGUCGGACCUCUCCUUAAUGGGAGCUAGCGGAUGAAGUGAUGCAACACUGGAGCCGCUGGGAACUAAUUUGUAUGCGAAAGUAUAUUGAUUAGUUUUGGAGUACUCGUGGUCG
In outline:
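Library with all eight P1ex-region intron nucleotides randomised, intron inside the knt kanamycin-resistance gene on pET-22b(+), in E. coli BL21(DE3). Cells grew overnight at 37°C or 30°C on LB agar with or without 25 μg/mL kanamycin (plus 100 μg/mL carbenicillin, 50 μM IPTG, 0.2% rhamnose), in six replicate transformations. Pooled colonies were amplicon-sequenced on Illumina HiSeq 2500. DiMSum fitness is the error-weighted combination of wild-type-normalised replicate fold changes, kanamycin versus none.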

Consider GGUAAGCAAUAUUACGGUUC, for which the “self-splicing fitness (ln)” value (30 °C) was -0.52 ± 0.16 and the “self-splicing fitness (ln)” value (37 °C) is -0.621 ± 0.17.
With GGUAAGCAAUAUUACGUCUU, the “self-splicing fitness (ln)” value was -0.148 ± 0.1 (30 °C) and -0.802 ± 0.12 (37 °C).
On the same counts, the results for GGUAAGCAAUAUUACGUUAG are -3.15 ± 0.18 and -1.72 ± 0.19.
On to GGUCAGCAAUAUUACGAAGC, for which the “self-splicing fitness (ln)” value reads like this: (30 °C) -0.892 ± 0.11; (37 °C) -0.0665 ± 0.13.
The matching figures for GGUCAGCAAUAUUACGACGC: -0.817 ± 0.13 and -0.318 ± 0.18.
On the same counts, the results for GGUCAGCAAUAUUACGAGCG are 0.269 ± 0.081 and -0.0123 ± 0.094.
Consider GGUCAGCAAUAUUACGAGGG, for which the “self-splicing fitness (ln)” value (37 °C) is -2.35 ± 0.25.
For the sequence GGUCAGCAAUAUUACGAGUG, the “self-splicing fitness (ln)” value runs as follows: (30 °C) -2.56 ± 0.1; (37 °C) -1.44 ± 0.11.
On the same counts, the results for GGUCAGCAAUAUUACGAUUU are 0.377 ± 0.062 and 0.21 ± 0.088.
GGUCAGCAAUAUUACGCAGG: the “self-splicing fitness (ln)” value (37 °C) was -3.55 ± 0.3.
On to GGUCAGCAAUAUUACGCCGU, for which the “self-splicing fitness (ln)” value reads like this: (30 °C) -2.61 ± 0.16; (37 °C) -0.39 ± 0.15.
On the same counts, the results for GGUCAGCAAUAUUACGCUAG are -3.43 ± 0.26 and -2.91 ± 0.34.
On the same counts, the results for GGUCAGCAAUAUUACGCUCA are -1.15 ± 0.12 and -0.0519 ± 0.17.
The matching figures for GGUCAGCAAUAUUACGGACA: -0.754 ± 0.19 and -0.179 ± 0.17.
Regarding GGUCAGCAAUAUUACGGGUC, the “self-splicing fitness (ln)” value is, setting by setting: (30 °C) -1.54 ± 0.13; (37 °C) -1.58 ± 0.16.
The matching figures for GGUCAGCAAUAUUACGGUGA: -0.695 ± 0.074 and -1 ± 0.11.
For the sequence GGUCAGCAAUAUUACGUCAC, the “self-splicing fitness (ln)” value (37 °C) is -1.77 ± 0.39.
Regarding GGUCAGCAAUAUUACGUCCU, the “self-splicing fitness (ln)” value by setting is: (30 °C) -2.63 ± 0.31; (37 °C) -1.85 ± 0.29.
The matching figures for GGUCAGCAAUAUUACGUGGU: -2.54 ± 0.18 and -2.17 ± 0.23.
The matching figures for GGUCAGCAAUAUUACGUUUU: -0.899 ± 0.073 and -0.202 ± 0.078.
Turning to GGUGAGCAAUAUUACGAAAU, the “self-splicing fitness (ln)” value reads like this: (30 °C) -2.21 ± 0.31; (37 °C) -2.78 ± 0.38.
In the case of GGUGAGCAAUAUUACGAAUC, the “self-splicing fitness (ln)” value (37 °C) is -2.04 ± 0.4.
As for GGUGAGCAAUAUUACGACUC, the “self-splicing fitness (ln)” value by setting is: (30 °C) -1.13 ± 0.15; (37 °C) -0.634 ± 0.22.
With GGUGAGCAAUAUUACGAGGC, the “self-splicing fitness (ln)” value (37 °C) was -0.336 ± 0.33.
For the sequence GGUGAGCAAUAUUACGAGUU, the “self-splicing fitness (ln)” value was -2.39 ± 0.27 (30 °C) and -0.657 ± 0.16 (37 °C).
On the same counts, the results for GGUGAGCAAUAUUACGAUCU are -0.331 ± 0.18 and -0.809 ± 0.27.
Turning to GGUGAGCAAUAUUACGCAAG, the “self-splicing fitness (ln)” value (37 °C) came to 0.418 ± 0.23.
As for GGUGAGCAAUAUUACGCAGA, the “self-splicing fitness (ln)” value is -2.51 ± 0.31 (30 °C) and -2.52 ± 0.33 (37 °C).
With GGUGAGCAAUAUUACGCUUC, the “self-splicing fitness (ln)” value (37 °C) is -2.51 ± 0.39.
For the sequence GGUGAGCAAUAUUACGGGCU, the “self-splicing fitness (ln)” value is -2.81 ± 0.19 (30 °C) and -2.67 ± 0.44 (37 °C).
On to GGUGAGCAAUAUUACGGGGC, for which, under “37 °C”, the “self-splicing fitness (ln)” value is -1.01 ± 0.32.
GGUGAGCAAUAUUACGUACG: the “self-splicing fitness (ln)” value is -0.28 ± 0.23 (30 °C) and -0.434 ± 0.25 (37 °C).
On to GGUGAGCAAUAUUACGUAUA, for which the “self-splicing fitness (ln)” value by setting is: (30 °C) -3.76 ± 0.29; (37 °C) -3.25 ± 0.37.
The matching figures for GGUGAGCAAUAUUACGUCCA: -2.91 ± 0.24 and -2.07 ± 0.096.
As for GGUGAGCAAUAUUACGUGAG, the “self-splicing fitness (ln)” value reads like this: (30 °C) -2.73 ± 0.19; (37 °C) -1.76 ± 0.21.
Turning to GGUGAGCAAUAUUACGUGCA, the “self-splicing fitness (ln)” value reads like this: (30 °C) -0.986 ± 0.12; (37 °C) -0.496 ± 0.14.
With GGUGAGCAAUAUUACGUGUC, the “self-splicing fitness (ln)” value is, setting by setting: (30 °C) -3.03 ± 0.26; (37 °C) -1.99 ± 0.32.
The matching figures for GGUGAGCAAUAUUACGUUAC: -3.12 ± 0.47 and -0.718 ± 0.24.
On the same counts, the results for GGUUAGCAAUAUUACGACGA are -1.15 ± 0.18 and 0.349 ± 0.21.
On the same counts, the results for GGUUAGCAAUAUUACGAGCU are -2.61 ± 0.29 and -1.69 ± 0.32.
